Source: patent publication US7749968B2, “Peptides for targeting the prostate specific membrane antigen” (The Johns Hopkins University, priority 2002, dated 2010)
Blank lines part the entries; values can stand above or below the molecule they belong to.

How the values were obtained:
xPSM [1] = biological target: T1, xPSM (Homo sapiens, UniProt Q04609); test: NAAG hydrolysis (NAALADase) assay with purified xPSM; type: biochemical; conditions: 1, 10 and 100 micromolar; 30 nM NAAG substrate, 37° C., 10 minutes
T1 construct: Purified human xPSM (the extracellular portion of human PSMA); S-tag (cleaved yes); made in house; host or cells: Sf-9 insect cells infected with recombinant baculovirus; released from S-protein agarose by enterokinase
Text: In another embodiment, the peptide compounds of the invention specifically enhance the enzymatic activity of PSMA. In another embodiment, peptide compounds of the invention may inhibit PSMA activity. Accordingly, the invention provides a method for assaying peptide compounds for the ability to modulate the activity of PSMA. This method is described in detail in Robinson, M. B. et al. (1987) J. Biol. Chem. 262:14498-506, incorporated herein by reference, as well as in Example 6 herein. Purified human xPSM (the extracellular portion of human PSMA) is incubated with a radiolabeled substrate, N-acetyl-L-aspartyl-L-[3,4-^3H]glutamate, plus the peptide compound being tested. Hydrolyzed substrate is then separated from intact substrate (e.g., by anion exchange chromatography) and quantitated to determine whether the test peptide compound was able to modulate PSMA activity.
N-acetyl-aspartyl-glutamate (NAAG) hydrolysis was performed essentially as previously described (Robinson, M. B. et al. (1987) J. Biol. Chem. 262:14498-506, incorporated herein by reference). In short, 65 ng purified xPSM was resuspended in NAALADase Buffer (50 mM Tris, pH 7.4, 0.5% Triton X-100) and incubated in the presence of peptides or inhibitors (1, 10, and 100 micromolar), along with the radiolabeled substrate N-acetyl-L-aspartyl-L-[3,4-^3H]glutamate (NEN Life Science Products, Boston, Mass.) at 30 nM. Reactions were run at 37° C. for 10 minutes. The reaction was then stopped by the addition of an equal volume of ice-cold 100 mM sodium phosphate, 2 mM EDTA. Products were separated from intact substrate using AG 1-X8 Formate resin (BioRad Laboratories, Hercules, Calif.) anion exchange chromatography. The reaction product, tritiated-glutamate, was eluted with 1M sodium formate and quantitated by scintillation counting. Intact NAAG remained in the column resin. Experiments were completed in triplicate and have been repeated. The data represents six data points from two experiments. Experiments were designed to allow 20% or less of the total substrate to be cleaved.

xPSM [2] = biological target: T1, xPSM; test: Final phage display round on xPSM bound to microtiter plates; type: binding
Text: In addition to phage library partitioning by cell binding, a final round of binding was completed on xPSM (Tag-xPSM digested with enterokinase) bound to plastic microtiter plates. This final round was used to ensure that those peptides identified in the LNCaP screen were targeting PSMA and not another unknown surface protein.
Multiple individual phage from rounds three of LNCaP binding and the final round of xPSM binding were isolated, amplified, and sequenced. […] Two sequences are highly represented and are found in both cell and purified protein backgrounds.

Tag-xPSM [3] = biological target: T2, Tag-xPSM (Homo sapiens, UniProt Q04609); test: Stringent Tag-xPSM phage display, round 4 acid elution pool; type: binding; conditions: pH 2.2 pool
T2 construct: made in house; host or cells: Sf-9 insect cells infected with recombinant baculovirus; protein harvested from the media
Description: As described above in Example 1, Tag-xPSM was used as a target for the in vitro selection of a commercially available cysteine-constrained heptapeptide phage library. For the initial round, 14 micrograms of S-protein-agarose immobilized Tag-xPSM was incubated with 2×10^11 PFU for 30 minutes at room temperature while rotating. Weakly bound phage were then washed off with three 5 minute rotating washes. One phage pool, referred to herein as the “pH 2.2 pool”, was eluted for ten minutes in pH 2.2 glycine buffer followed by neutralization in Tris buffer. Those phage still bound to Tag-xPSM were then eluted for one hour in 30 mM EDTA-Tris buffer. This pool is referred to herein as the “EDTA pool”. These two pools where then carried separately for the next three rounds. Stringency was increased in each round by changing Tag-xPSM substrate background, decreasing binding time, or increasing washing time (Table 3).
Twelve individual phage from each elution condition for rounds two, three, and four of Tag-xPSM phage display were isolated, amplified, and sequenced. All clones sequenced from rounds 2 and 3 were unique (Tables 4 and 5).

Tag-xPSM [4] = biological target: T2, Tag-xPSM; test: Tag-xPSM phage display selection (agarose/cellulose), sequencing of selected phage; type: binding
Description: 100 μl of S-protein agarose (2× in RPMI 1640+1% Fetal Bovine Serum (FBS) and 100 μl of CBind Resin (10 mg/ml in RPMI 1640+1% FBS) without fusion protein were used to negatively select the original phage display library. 2×10^11 plaque forming units (PFU) of 1.29×10^9 different sequence phage were incubated with each aliquot of resin for 1 hr at 37° C., while rotating. The S-tag agarose was pelleted and supernatant saved as the agarose counter-selected pool. The cellulose resin was transferred onto 200 μl of 9:1 dibutyl phthalate:cyclohexane and the resin pelleted through the organic phase. The aqueous supernatant was saved as the cellulose counter-selected pool. Each counter selected pool was then added to tag-xPSM agarose or cellulose resin and incubated for 1 hr at 37° C., while rotating. The tag-xPSM agarose was pelleted and washed three times in RPMI 1640+1% FBS. The agarose pellet was then saved for phage isolation. The Tag-xPSM cellulose was transferred onto 200 μl of 9:1 dibutyl phthalate:cyclohexane and the resin pelleted through the organic phase. The tube was then snap frozen in liquid nitrogen to isolate the resin pellet. Over 75% of Tag-xPSM remained bound to the cellulose resin through these conditions. The resulting phage-bound tag-xPSM agarose and tag-xPSM cellulose were then resuspended in 200 μl of log phage ER2738 cells and phage allowed to infect 1 hour at room temperature. A small aliquot was taken at this time to quantitate the number of phage bound per round of selection. The remaining PSMA bound phage was then amplified, tittered, and applied to the next round of phage display. There was only one counter-selection round, followed by a total of five positive selection rounds, applying between 10^10 to 10^11 PFU per round. The final round of selection included cross-selections, where selected phage pools from one PSMA background where applied to the other. Individual phage were isolated and sequenced from rounds three through five.
Individual phage plaques were amplified for 5 hours in ER2738 cells at 37° C. Amplified supernatant was incubated 1:1 with PEG/NaCl buffer (20% PEG 8000, 2.5 M NaCl) for 10 minutes at room temperature. Phage were microfuged 10 minutes at 20,000 g, 4° C. The phage pellet was suspended in 100 μl Iodide buffer (10 mM Tris-HCl, pH 8.0, 1 mM EDTA, 4M NaI). Single stranded DNA (ssDNA) was precipitated with 250 μl of 100% ethanol, pelleted, and washed in 70% ethanol. Each ssDNA pellet was suspended in 30 μl 10 mM Tris, pH 7.4. Each phage was sequenced using the Amersham DYE ET mix, by incubating 6 μl ssDNA, 1 μl of 5 μM-96 pill Sequencing Primer ([…]; SEQ ID NO:108), and 8 μl of DYE ET mix in a 96 well PCR plate and amplified by 30 cycles of 95° C. for 20 seconds, 50° C. for 15 seconds, and 60° C. for 1 minute. Sequencing reaction products were spun through G50-fine Sephadex column plates, prepared on Millipore-multiscreen plates. Products were sequenced and analyzed on the MegaBACE capillary sequencer. All sequences, minus the flanking cysteines, were aligned using the Baylor College of Medicine Clustal W1.8 Global Progressive Alignment (available online) with data presented by Boxshade 3.21 software (available online through the Swiss Institute for Bioinformatics).
2×10^11 plaque-forming units (PFU) of the library was incubated with each aliquot of resin for one hour at 37° C., while rotating. The S-tag agarose was pelleted and the supernatant saved as the agarose counter-selected pool. The cellulose resin was transferred onto a 9:1 ratio of dibutyl phthalate:cyclohexane and the resin centrifuged through the organic phase. The aqueous supernatant was saved as the cellulose counter-selected pool. Each counter selected pool was then added to tag-xPSM agarose or cellulose resin, respectively, and incubated for one hour at 37° C., while rotating (see FIG. 2). The Tag-xPSM agarose was pelleted, washed, and saved for phage isolation. […]

T1 sequence (Q04609 44-750 limits assumed): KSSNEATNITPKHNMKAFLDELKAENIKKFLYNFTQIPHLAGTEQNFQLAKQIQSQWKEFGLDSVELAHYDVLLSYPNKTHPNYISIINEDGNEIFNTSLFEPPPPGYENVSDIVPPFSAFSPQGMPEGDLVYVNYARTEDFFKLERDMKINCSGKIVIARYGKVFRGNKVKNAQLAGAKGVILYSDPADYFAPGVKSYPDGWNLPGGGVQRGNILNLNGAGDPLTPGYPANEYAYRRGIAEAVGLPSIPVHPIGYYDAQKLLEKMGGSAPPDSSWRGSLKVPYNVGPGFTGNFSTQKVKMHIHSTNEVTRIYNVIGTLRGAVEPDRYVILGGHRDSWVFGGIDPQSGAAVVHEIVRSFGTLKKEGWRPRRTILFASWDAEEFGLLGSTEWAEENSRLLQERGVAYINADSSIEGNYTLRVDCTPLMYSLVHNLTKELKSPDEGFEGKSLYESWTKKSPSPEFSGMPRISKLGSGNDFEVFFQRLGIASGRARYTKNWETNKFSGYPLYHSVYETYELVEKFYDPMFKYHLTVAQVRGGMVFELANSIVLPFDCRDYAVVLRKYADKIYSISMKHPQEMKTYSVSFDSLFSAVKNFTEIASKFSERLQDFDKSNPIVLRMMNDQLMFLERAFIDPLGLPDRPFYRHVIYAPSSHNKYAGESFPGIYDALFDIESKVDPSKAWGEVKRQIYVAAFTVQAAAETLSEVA
T2 sequence (Q04609 44-750 limits assumed): as above

Molecule: N[C@@H](Cn1oc(=O)[nH]c1=O)C(=O)O [quisqualic acid, reference compound]
Effect on PSMA enzymatic activity (xPSM [1]): inhibited

Molecule: CPQPASRQC [SEQ ID NO:36]
Number of times sequence was found, Round 1 xPSM (xPSM [2]): 1

Molecule: CLAAPTGKC [SEQ ID NO:30]
Number of times sequence was found, Round 1 xPSM (xPSM [2]): 12

Molecule: CKSGEVNYC [SEQ ID NO:34]
Number of times sequence was found, Round 1 xPSM (xPSM [2]): 0

Molecule: CGSAARNWC [SEQ ID NO:32]
Number of times sequence was found, Round 1 xPSM (xPSM [2]): 0

Molecule: CQKHHNYLC [SEQ ID NO:1]
Number of times sequence was found, Round 3 (Tag-xPSM [4]; Agarose): 0/0
Number of times sequence was found, Round 4 (Tag-xPSM [4]; Agarose): 0/0
Number of times sequence was found, Round 5 (Tag-xPSM [4]; Agarose): 0
Number of times sequence was found, Round 3 (Tag-xPSM [4]; Cellulose): 0/0
Number of times sequence was found, Round 4 (Tag-xPSM [4]; Cellulose): 0/0
Number of times sequence was found, Round 5 (Tag-xPSM [4]; asterisk: cross-selected, agarose pool selected on cellulose (final resin)): 12
Effect on PSMA enzymatic activity (xPSM [1]): enhanced

Molecule: CTLVPHTRC [SEQ ID NO:3]
Number of times sequence was found, Round 3 (Tag-xPSM [4]; Agarose): 0/0
Number of times sequence was found, Round 4 (Tag-xPSM [4]; Agarose): 13/13
Number of times sequence was found, Round 5 (Tag-xPSM [4]; Agarose): 0
Number of times sequence was found, Round 3 (Tag-xPSM [4]; Cellulose): 0/0
Number of times sequence was found, Round 4 (Tag-xPSM [4]; Cellulose): 13/13
Number of times sequence was found, Round 5 (Tag-xPSM [4]; Cellulose): 2
Effect on PSMA enzymatic activity (xPSM [1]): enhanced

The remaining lines, values ahead:

Number of times sequence was found, Round 1 xPSM (xPSM [2]): 0
Molecule: CERNTYRFC [SEQ ID NO:33]

Number of times sequence was found, Round 1 xPSM (xPSM [2]): 7
Molecule: CTYNPSRWC [SEQ ID NO:29]

Share of the round 4 acid elution pool (Tag-xPSM [3]): 83%
Molecule: CLNTAPLAC [SEQ ID NO:60]

Number of times sequence was found, Round 1 xPSM (xPSM [2]): 0
Molecule: CTNPNMHHC [SEQ ID NO:35]

Number of times sequence was found, Round 1 xPSM (xPSM [2]): 1
Molecule: CNKAALGTC [SEQ ID NO:31]

Number of times sequence was found, Round 3 (Tag-xPSM [4]; Agarose): 1
Number of times sequence was found, Round 4 (Tag-xPSM [4]; Agarose): 0/0
Number of times sequence was found, Round 5 (Tag-xPSM [4]; Agarose): 0/0
Number of times sequence was found, Round 3 (Tag-xPSM [4]; Cellulose): 0
Number of times sequence was found, Round 4 (Tag-xPSM [4]; Cellulose): 0/0
Number of times sequence was found, Round 5 (Tag-xPSM [4]; Cellulose): 0/0
Molecule: CPIMLSEPC [SEQ ID NO:26]
